The results in this text go back to patent publication US20160040149A1, “Compositions Having Dicamba Decarboxylase Activity and Methods of Use” (priority 2013, published 2016).

Data set [1] in a line: GC/MS detection of decarboxylation product 2,5-DCA (toluene trapping or head space). The class given is biochemical. The settings on record: purified protein, dicamba substrate. The method, then:
Alternatively, dicamba decarboxylase activity can be monitored by measuring decarboxylation products other than CO2 using product detection methods. The decarboxylation product of dicamba, 2,5-dichloro anisole or 2,5-DCA (FIG. 1C), is a volatile compound with a flash point of 21° C. To capture this volatile compound for detection, 140 ul of toluene solution is added on top of 1 ml reaction mixture to form a trapping layer in a 1.5 ml eppendorf tube. […] The reaction is kept still at room temperature overnight before being vortex mixed and centrifuged at 14,000 rpm for 15 minutes. The top toluene phase is carefully removed using a micropipette and transferred into a 12×32 mm polypropylene vial (Vial 11 mm) from MicroLiter Analytical Supplies, Inc. (catalog number 11-5300-100). The vial is sealed with Crimp seal (11 mm with FEP/Nat Rubber) from MicroLiter Analytical Supplies, Inc. (catalog number 11-0020A) using a E-Z Crimper™ 11 mm from Wheaton Inc. lul of the toluene mixture is taken from the sealed vials and injected in splitless mode into a GC/MS system for sample analysis (Agilent GC/MS system with a 6890A GC, a 5973N MSD and a CTC CombiPAL auto-sampler or with a 7890A GC, a 5975C MSD and an Agilent GC Sampler 80 auto-sampler). The GC parameters are: Agilent DB-5MS column (30 m length, 0.25 mm diameter, 0.25 um film) or equivalent; The GC inlet temperature, 250° C.; Carry gas, helium in constant flow mode (1.2 mL/min); The GC oven temperature program, initial temperature at 70° C. for 1 min, ramping to 200° C. at 15° C./min, and then ramping to 250° C. at 30° C./min. MS data acquisition is done in SIM (selected ion monitoring) mode, monitoring the positive ion at M/Z 176 for the molecular ion of […]. The solvent delay for MS acquisition is set at 4 min. Another method for detection of 2,5-DCA is a head-space GC/MS method. Briefly, reaction mixtures in 500 ul reaction volume are prepared in 1.5 ml 12×32 mm glass vials (Microliter Analytical Supplies, Cat#11-1200) for head space analysis. Glass vials are sealed with magnetic cap from MicroLiter Analytical Supplies, Inc. (catalog number 11-0030AT) using a E-Z Crimper™ 11 mm from Wheaton Industries Inc. The reaction is carried out at room temperature for various amount of time and stopped by heating at 95° C. for 5 min. The reaction vial is transferred to a agitator for incubation at 80° C. for 5 min at 500 rpm. With a syringe preheated at 80° C., 1000 uL of head space is injected with sample fill speed at 100 uL/sec. GC/MS parameters for headspace analysis are the same as for liquid sample analysis.

Data set [2] is described as follows: Dicamba decarboxylase activity / product analysis with purified His-tag protein (14C assay and product detection of Example 1). Particulars: for other products (than 2,5-DCA): purified protein, dicamba substrate; for dicamba decarboxylase activity: statement of the description. The class given is biochemical. The method, then: To obtain purified protein for activity assays, IPTG-induced cells were harvested by centrifugation at 7,000 rpm for 10 mins Cell pellet from 50 mL of cell culture was frozen and thawed twice and then lysed in 8004 lysis buffer consisting of 50 mM potassium phosphate buffer (pH7.0), 50 μM ZnSO4, 5% EG, 50 mM KCl, 1 mM DTT, 0.2 mg/ml lysozyme, 1/200 protease inhibitor cocktail (EMD set3, EDTA free), and 1/2,000 endonuclease. Lysate was then centrifuged at 13,000 rpm for 45 min at 4° C. Supernatant was loaded onto 200 μL Ni-NTA columns pre-equilibrated with 10 mM His Buffer containing 25 mM potassium phosphate buffer pH7, 50 μM ZnSO4, 5% EG, 200 mM KCl, and 10 mM histidine. The columns were let sit at 4° C. until the entire supernatant passed through. Each column was then washed with 200 ul 10 mM His Buffer twice and then 4 times with 800 ul loading buffer consisting of 25 mM potassium phosphate buffer pH7, 50 μM ZnSO4, 5% EG, 200 mM KCl. Protein was eluted with 1504 of Elution Buffer consisting of 25 mM potassium phosphate buffer pH7, 50 μM ZnSO4, 5% EG, 100 mM KCl, 100 mM histidine, 10% glycerol. The protein concentration was measured by Bradford assay. Purified protein was used for dicamba decarboxylase activity measurement as described in Example 1. Enzyme kinetic characterization of selected dicamba decarboxylases was determined through GC/MS measurement of 2,5-DCP or PEPC coupled assay as described in Example 1.

Data set [3] is described as follows: Saturation mutagenesis of SEQ ID NO:109: dicamba decarboxylation activity of point mutants (CO2 released), fold of backbone (Tables 7, 8, Megatable 1). Particulars: decarboxylation activity (CO2 released) of point mutant vs unmutated backbone protein; backbone SEQ ID NO: 109.

B1: 121 (protein)
chain: MAIIDCHGHYTTTPKGVEDYRNAQKAAVAKDPSFKGEKGQVVVSDDEIRESIENNQLKMQRERGTDLTIFSPRWDAGGHHIGNEYTSQFWTEHQNDLIRRVCDLFPKNFAPVAQLPQSPGVDPAKSVPEIVRTVEQMGFIGINLNPDPSGGYWKDTSLADRAFYPIYEKMVEYDIPAMIHPRLACNACFHTGLSVGLGADTTGFQQLIMSDVFKDFPSLKIIIPHGGGAVPYHWGRFRGLMQDQGYAPLEESALKNIYFDTCVYHQRGIDLLLDIVPTQNILFASEMIGAVRGIDPETGHNFDDTKRYIDNNTALNAEEKAMIFEGNARRVFSRLKTD
modifications: Dicamba decarboxylase variant clone: DC.12.014
On to B1, for which the “minor decarboxylation product 2,5-DCA” value in data set [1] is “detected”. In data set [2], the “other products (than 2,5-DCA)” value was “not detected” and the dicamba decarboxylase activity entry is listed as “shown herein to have dicamba decarboxylase activity”. Besides, the “Fold Activity” value in data set [3] was determined as 1 fold.

B2: 117 (protein)
chain: MAKKPRIDMHSHFFPRISEQEAAKFDANHAPWLQVSAKGDTGSIMMGKNNFRPVYQALWDPAFRIEEMDAQGVDVQVTCATPVMFGYTWEANKAAQWAERMNDFALEFAAHNPQRIKVLAQVPLQDLDLACKEASRAVAAGHLGIQIGNHLGDKDLDDATLEAFLTHCANEDIPILVHPWDMMGGQRMKKWMLPVLVAAPAEVQLAILSLILSGAFERIPKSLKICFAGGGGSFAFLLGIVDLAWRHRDIVREDCPRPPSEYVDRFFVDSLVFNPGALELLVSVMGEDRVMLGSDYPFPTGEQKIGGLVLSSNLGESAKDKIISGNASKFFNINV
modifications: Dicamba decarboxylase variant clone: DC.5.008
In the case of B2, the “minor decarboxylation product 2,5-DCA” value in data set [1] is given as “detected”. Further, in data set [2], the “other products (than 2,5-DCA)” value was “not detected” and the dicamba decarboxylase activity entry is “shown herein to have dicamba decarboxylase activity”. Moreover, the “Fold Activity” value in data set [3] is reported as 1.8 fold.

B3: 95 (protein, listed as Pseudomonas fluorescens)
chain: MAKKPRIDMHSHFFPRISEQEAAKFDANHAPWLQVSAKGDTGSIMMGKNNFRPVYQALWDPAFRIEEMDAQGVDVQVTCATPVMFGYTWEANKAAQWAERMNDFALEFAAHNPQRIKVLAQVPLQDLDLACKEASRAVAAGHLGIQIGNHLGDKDLDDATLEAFLTHCANEDIPILVHPWDMMGGQRMKKWMLPWLVAMPAETQLAILSLILSGAFERIPKSLKICFGHGGGSFAFLLGRVDNAWRHRDIVREDCPRPPSEYVDRFFVDSAVFNPGALELLVSVMGEDRVMLGSDYPFPLGEQKIGGLVLSSNLGESAKDKIISGNASKFFNINV
With B3, the dicamba decarboxylase activity result in data set [2] was “Neither of the native proteins have dicamba decarboxylase activity”. Moreover, the “Fold Activity” value in data set [3] came out at 1.4 fold.

B4: 120 (protein)
chain: MAIIDCHGHYTTTPKGVETYRNAQKAAVAKDPSFKYEKGQVVVSDDEIRESIENNQLKMQRERGTDLTIFSPRSTAGGHHIGNEYTSQFWTEHQNDLIRRVCDLFPKNFAPVAQLPQSPGVDPAKSVPEIVRTVEQMGFIGINLNPDPSGGYWKDTSLADRAFYPIYEKMVEYDIPAMIHPRNACNDCFHTTGSHALGADTTGFQQLIMSDVFKDFPSLKIIIPHGGGAVPYHWGRFRGLMQDQGYAPLEESALKNIYFDTCVYHQRGIDLLLDIVPTQNILFASEMIGAVRGIDAETGHNFDDTKRYIDNNTALNAEEKAMIFEGNARRVFSRLKTD
modifications: Dicamba decarboxylase variant clone: DC.12.002
With B4, in data set [1], the “minor decarboxylation product 2,5-DCA” value is reported as “detected”. Besides, in data set [2], the “other products (than 2,5-DCA)” value is listed as “not detected” and the dicamba decarboxylase activity entry is recorded as “shown herein to have dicamba decarboxylase activity”. In addition, the “Fold Activity” value in data set [3] was 1.3 fold.

B5: 122 (protein)
chain: MAIIDCHGHYTTTPKGVEDYRNAQKAAVAKDPSFKGEKGQVVVSDDEIRESIENNQLKMQRERGTDLTIFSPRSTAGGHHIGNEYTSQFWTEHQNDLIRRVCDLFPKNFAPVAQLPQSPGVDPAKSVPEIVRTVEQMGFIGINLNPDPSGGYWKDTSLADRAFYPIYEKMVEYDIPAMIHPRNACNDCFHTTGSHALGADTTGFQQLIMSDVFKDFPSLKIIIPHGGGAVPYHWGRFRGLMQDQGYAPLEESALKNIYFDTCVYHQRGIDLLLDIVPTQNILFASDMIGAVRGIDPETGHNFDDTKRYIDNNTALNAEEKAMIFEGNARRVFSRLKTD
modifications: Dicamba decarboxylase variant clone: DC.12.103
In the case of B5, the “minor decarboxylation product 2,5-DCA” value in data set [1] is “detected”. Further, in data set [2], the “other products (than 2,5-DCA)” value is reported as “not detected” and the dicamba decarboxylase activity entry is “shown herein to have dicamba decarboxylase activity”. For the same molecule, the “Fold Activity” value in data set [3] worked out at 0.9 fold.

B6: 118 (protein)
chain: MAKKPRIDMHSHFFPRISEQEAAKFDANHAPWLQVSAKGDTGSIMMGKNNFQPVYQALWDPAFRIEEMDAQGVDVQVTCATPVMFGYTWEANKAAQWAERMNDFALEFAAHNPQRIKVLAQVPLQDLDLACKEASRAVAAGHLGIQIGNHLGDKDLDDATLEAFLTHCANEDIPILVHGTDMMGGQRMKKWGLPWLVALAAEVQLAILSLILSGAFERIPKSLKICFSHGGGSFAFLLGLVDEAWRHVDIVREDCPRPPSEYVDRFFVDSVGNPGALELLVSVMGEDRVMLGSDYPHTTGEQKIGGLVLSSNLGESAKDKIISGNASKFFNINV
modifications: Dicamba decarboxylase variant clone: DC.5.033
Turning to B6, in data set [1], the “minor decarboxylation product 2,5-DCA” value was “detected”. Moreover, in data set [2], the “other products (than 2,5-DCA)” value was “not detected” and the dicamba decarboxylase activity result is listed as “shown herein to have dicamba decarboxylase activity”. The “Fold Activity” value in data set [3] came to 1.4 fold.

B7: 119 (protein)
chain: MAKKPRIDMHSHFFPRISEQEAAKFDANHAPWLQVSAKGDTGSIMMGKNNFQPVYQALWDPAFRIEEMDAQGVDVQVTCATPVMFGYTWEANKAAQWAERMNDFALEFAAHNPQRIKVLAQVPLQDLDLACKEASRAVAAGHLGIQIGNHLGDKDLDDATLEAFLTHCANEDIPILVHGWDMMGGQRMKKWGLYWLVAHHAEVQLAILSLILSGAFERIPKSLKICFSHGGGSFAFTLGWVDEAWRHVDIVREDCPRPPSEYVDRFFVDSVGNPGALELLVSVMGEDRVMLGSDYPLTTGEQKIGGLVLSSNLGESAKDKIISGNASKFFNINV
modifications: Dicamba decarboxylase variant clone:DC.5.034
In the case of B7, the “minor decarboxylation product 2,5-DCA” value in data set [1] is on record as “detected”. For the same molecule, in data set [2], the “other products (than 2,5-DCA)” value is recorded as “not detected” and the dicamba decarboxylase activity result is “shown herein to have dicamba decarboxylase activity”. Besides, the “Fold Activity” value in data set [3] is reported as 1.6 fold.

B8: 100 (protein, listed as Reinekea blandensis)
chain: MAIIDCHGHYTTTPKGVEDYRNAQKAAVAKDPSFKGEKGQVVVSDDEIRESIENNQLKMQRERGTDLTIFSPRASWMGHHIGNEYTSQFWTEHQNDLIRRVCDLFPKNFAPVAQLPQSPGVDPAKSVPEIVRTVEQMGFIGINLNPDPSGGYWKDTSLADRAFYPIYEKMVEYDIPAMIHVSAACNDCFHTTGSHYLGADTTGFQQLIMSDVFKDFPSLKIIIPHGGGAVPYHWGRFRGLMQDQGYAPLEESALKNIYFDTCVYHQRGIDLLLDIVPTQNILFASEMIGAVRGIDPETGHNFDDTKRYIDNNTALNAEEKAMIFEGNARRVFSRLKTD
Regarding B8, the dicamba decarboxylase activity result in data set [2] is recorded as “Neither of the native proteins have dicamba decarboxylase activity”. Moreover, the “Fold Activity” value in data set [3] is 2.5 fold.
